Source: doi:10.1101/2024.09.28.615595
Where two headings read alike, the source gives them in different places.

Columns and labels:
Assay in all cases: EMSA
CsrA [1] = molecular target: T1, CsrA (Escherichia coli, UniProt P69913 1-61)
CsrA [2] = molecular target: T1, CsrA; remark: listed apart in the source
CsrA [3] = molecular target: T1, CsrA; remark: listed apart in the source

T1 sequence (P69913 whole entry): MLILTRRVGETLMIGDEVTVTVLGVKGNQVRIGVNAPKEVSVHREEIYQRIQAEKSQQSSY

B1: uxuB leader wild type (ssRNA)
RNA: GGGAUAAUGCGCUUUCUUUAGCCGUUAAUAUCCACCGGCAUGGCUGCGCGCCGUGCCGGUUCCUUCUUCCUUGCCGUCACUCUUUGAAGACGGAUUCUGGAGUUUACGAUGACUACUAUUGUUGACAGCAAUCUGCCGGUUGCCCGCCCGUCAUGGGAUCAUUCUCGUCUGGAAUCACGCAUUGUGCAUCUCGGUUGCGGGGCGUUUC
- Kd (CsrA [1]): ~83.2 nM

B2: uxuB CDS mutant (DOWNSTR mut) (ssRNA)
RNA: GGGAUAAUGCGCUUUCUUUAGCCGUUAAUAUCCACCGGCAUGGCUGCGCGCCGUGCCGGUUCCUUCUUCCUUGCCGUCACUCUUUGAAGACGGAUUCUGGAGUUUACGAUGACUACUAUUGUUGACAGCAAUCUGCCGGUUGCCCGCCCGUCAUUUGAUCAUUCUCGUCUGCAAUCACGCAUUGUGCAUCUAGGUUGCGGGGCGUUUCGCAUGC
- apparent K (half saturation) (CsrA [1]): ~158 nM

B3: uxuB no GGAs mutant (ssRNA)
RNA: GGGAUAAUGCGCUUUCUUUAGCCGUUAAUAUCCACCGGCAUGGCUGCGCGCCGUGCCGGUUCCUUCUUGCUUGGCGUCACUCUUUGAAGACGCAUUCUGCAGUUUACGAUGACUACUAUUGUUGACAGCAAUCUGCCGGUUGCCCGCCCGUCAUUUGAUCAUUCUCGUCUGCAAUCACGCAUUGUGCAUCUAGGUUGCGGGGCGUUUCGCAUGC
- apparent K (half saturation) (CsrA [1]): ~193 nM

B4: uxuB CDS truncation wild type (ssRNA)
RNA: GGGAUAAUAUGACUACUAUUGUUGACAGCAAUCUGCCGGUUGCCCGCCCGUCAUGGGAUCAUUCUCGUCUGGAAUCACGCAUUGUGCAUCUCGGUUGCGGGGCGUUUC
- Kd (CsrA [2]): ~164 nM

B5: uxuB 5' UTR truncation mutant (ssRNA)
RNA: GGGAUAAUGCGCUUUCUUUAGCCGUUAAUAUCCACCGGCAUGGCUGCGCGCCGUGCCGGUUCCUUCUUGCUUGGCGUCACUCUUUGAAGACGCAUUCUGCAGUUUACGA
- binding result (CsrA [3]): no binding
